Values of other authors, collected in article doi:10.1101/2024.07.26.605324.

Key:
[1] = target: His19 (UniProt position 19, ILSALHFMAWT); assay: NMR; details: 243–263 K; membrane-bound tetramer, wild type with both His19 and His27 present
[2] = target: His27 (UniProt position 27, AWTIGHLNQIK); assay: NMR; details: 243–263 K; membrane-bound tetramer, wild type with both His19 and His27 present

In the case of “Influenza B virus matrix protein 2 (BM2) proton channel (Influenza B virus)”, the pKa [1] is given as 4.2 and the pKa [2] is given as 7.9.
